Data set [1] has as its system NC[C@H]1O[C@H](O[C@H]2[C@H](O)[C@@H](O[C@H]3O[C@H](CO)[C@@H](O)[C@H](N)[C@H]3O)[C@H](N)C[C@@H]2N)[C@H](O)[C@@H](O)[C@@H]1O. The data set can be described thus: purified protein.
Data set [2] concerns the molecule itself. The data set can be described thus: SEC; untreated protein, 100 ug, Superose 6 Increase 10/300 GL, 10 mM Tris-Cl pH 8.0, 150 mM NaCl, 1 mM EDTA, 0.5 mM beta-ME, 25°C, 0.5 ml/min; calibrated with molecular weight markers. For orientation: Size exclusion chromatography separates by hydrodynamic size, large species first.
Data set [3] deals with the molecule itself. As to the kind of experiment: SDS-PAGE of unboiled sample; 10 ug unboiled protein on 8% SDS-PAGE, loading dye with 1% SDS, 0.125 M Tris pH 6.8, 40% glycerol; Coomassie stain.
Where [4] appears, read: fixed acetyl-CoA (500 μM in the standard assay), 2 mM DTNB, 0.5 μM enzyme, 20 mM phosphate pH 8.0, 25°C.

For orientation: Km means the concentration of substrate that gives half-maximal velocity. One may read the Vmax as the top rate of the reaction or transport when substrate is in excess. In general, kcat/Km refers to the turnover number divided by the Michaelis constant. Take “RvEis (Mycobacterium tuberculosis H37Rv)”: in data set [1] (pH 8.0, 25.0 °C), the Km is 11 ± 1.6 µM, the Vmax worked out at 4 µM/min and the kcat/Km stood at 2140 M⁻¹ s⁻¹.

Broadly, the kcat is the number of substrate molecules converted per active site and unit of time at saturation. As to “MsEis (Mycolicibacterium smegmatis MC2 155)”, in data set [1] (setting [4]), the Km was found to be 21 ± 0.1 µM, the Vmax was found to be 4.8 µM/min, the catalytic constant (kcat) was 0.027 ± 0.005 s⁻¹ and the kcat/Km turned out to be 1270 ± 22 M⁻¹ s⁻¹.

B1: M. tuberculosis Eis (Rv2416c, Enhanced Intracellular Survival protein) (enzyme)
chain: MTVTLCSPTEDDWPGMFLLAAASFTDFIGPESATAWRTLVPTDGAVVVRDGAGPGSEVVGMALYMDLRLTVPGEVVLPTAGLSFVAVAPTHRRRGLLRAMCAELHRRIADSGYPVAALHASEGGIYGRFGYGPATTLHELTVDRRFARFHADAPGGGLGGSSVRLVRPTEHRGEFEAIYERWRQQVPGGLLRPQVLWDELLAECKAAPGGDRESFALLHPDGYALYRVDRTDLKLARVSELRAVTADAHCALWRALIGLDSMERISIITHPQDPLPHLLTDTRLARTTWRQDGLWLRIMNVPAALEARGYAHEVGEFSTVLEVSDGGRFALKIGDGRARCTPTDAAAEIEMDRDVLGSLYLGAHRASTLAAANRLRTKDSQLLRRLDAAFASDVPVQTAFEF
notes: also called RvEis; not shown: His tag, N-terminal, kept
As a reminder, the stoichiometry N is a count of units in the complex or per binding partner. As to B1, the “stoichiometry N” value is 6 in data set [2] and 3 in data set [3].

B2: M. smegmatis Eis (MSMEG_3513) protein (enzyme, UniProt A0QY29 1-402, looked up)
chain: MITPRTLHTITDDDWTRIALLARFAFGDIEPEQTQAAWRSMVPEDATVVVPDETDDAFVGQSLYLDMQLTVPGGEVLPVAGISFVAVAPTHRRRGVLRAMYTELHDRIARAGYPLAVLTASEGGIYGRFGYGVATIEQHVSVDRRLAQFHPAAPDPGGVRMLVPADHRDGLADIYDRWRRRTPGGLVRPDALWDDLLADRPESRRGGGELFAFGHQDGYALYRVDRGPDGRRSAHVVELTAVTADAHAALWRALLGLDLIDRVSIGTHPHDPLPYLLTDPRQAQVTASADDLWIRIMNVPAALEARRYQADLDVVLDVADGFRSDGGRFALQISGGRARCTTTDAPADIEIDLDVLGGLYLGAHRVDGFAAANRLRSKDSELLQQFGAAFAGDMPAELGYGF
notes: also called MsEis; Enhanced Intracellular Survival protein from M. smegmatis
For B2, in data set [2], the “stoichiometry N” value is 6.
